From paper PMC8551457 come the findings set out here.

Entries after “also recorded” stand apart in the source; their conditions may differ.

Series [1] has as its target phytochrome-associated protein phosphatase 5 from Arabidopsis thaliana (AtPAPP5), isoform 2, 1-484, affinity tag removed, labelled with a green maleimide dye (Arabidopsis thaliana) (UniProt Q84XU2). As to the kind of experiment: MST; labelled AtPAPP5 at 50 nM, AtPhyB(1-651) variant titrated (S86D 4 nM to 70 uM, S84D 2 nM to 29 uM); 100 uM arachidonic acid (AA) added, 15 min incubation; 25 °C; premium coated capillaries; 1:1 binding model; apparent KD; phytochrome in photodynamical equilibrium with prevalence of Pfr.
UniProt Q84XU2, sequence (Q84XU2 other isoform, or with tags, fused parts or gaps): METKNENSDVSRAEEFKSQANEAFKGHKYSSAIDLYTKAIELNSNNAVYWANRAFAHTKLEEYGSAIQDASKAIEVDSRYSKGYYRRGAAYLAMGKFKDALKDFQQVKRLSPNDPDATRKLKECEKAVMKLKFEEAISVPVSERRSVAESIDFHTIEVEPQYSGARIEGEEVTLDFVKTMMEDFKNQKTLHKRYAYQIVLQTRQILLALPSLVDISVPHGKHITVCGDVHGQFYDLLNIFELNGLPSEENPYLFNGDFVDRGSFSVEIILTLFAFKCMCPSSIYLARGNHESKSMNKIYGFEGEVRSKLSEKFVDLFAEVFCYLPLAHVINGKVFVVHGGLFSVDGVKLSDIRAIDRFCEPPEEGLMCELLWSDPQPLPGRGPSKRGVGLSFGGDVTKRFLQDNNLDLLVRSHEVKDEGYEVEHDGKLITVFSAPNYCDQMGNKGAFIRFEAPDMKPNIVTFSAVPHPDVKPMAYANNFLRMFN

The conditions of series [2]: phosphorylation at S86.

As to “AtPhyB(1-651) S84D, phosphomimetic variant of the photosensory module of Arabidopsis thaliana phytochrome B (domain or fragment)”, the Kd in series [1] was 1300 nM. Turning to “phytochrome B (AtPhyB): S86D phosphomimetic”, in series [2], the other entry was “increases, dark conversion t1/2 40 min vs 270 min for wild type; also recorded: changes, 5 nm bathochromic shift of the Pfr absorption maximum”. For the substance “AtPhyB(1-651) S86D, phosphomimetic variant of the photosensory module of Arabidopsis thaliana phytochrome B (domain or fragment)”, the Kd in series [1] turned out to be 1800 nM.
